Assay results from patent publication US20230416352A1 (JIANGSU HENGRUI PHARMACEUTICALS, published 2023).
Substitutions are numbered along the chain they refer to.

T1: human CTGF (antigen of the Biacore assays) (human, UniProt P29279 27-349, limits assumed)
T1 construct: also called human CTGF protein
T1 sequence: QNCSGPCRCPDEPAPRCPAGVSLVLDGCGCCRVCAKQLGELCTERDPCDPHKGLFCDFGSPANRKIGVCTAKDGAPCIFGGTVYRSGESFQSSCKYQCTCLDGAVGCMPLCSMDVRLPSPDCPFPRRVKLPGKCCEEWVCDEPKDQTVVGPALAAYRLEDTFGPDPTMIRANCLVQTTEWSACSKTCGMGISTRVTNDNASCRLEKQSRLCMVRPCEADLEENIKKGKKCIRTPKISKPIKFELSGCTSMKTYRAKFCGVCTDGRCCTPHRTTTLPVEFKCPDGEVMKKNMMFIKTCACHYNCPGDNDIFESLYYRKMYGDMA

B1: CTGF antibody mAb1 (antibody, V domains shown)
VH: EGQLVQSGGGLVHPGGSLRLSCAGSGFTFSSYGMHWVRQAPGKGLEWVSGIGTGGGTYSTDSVKGRFTISRDNAKNSLYLQMNSLRAEDMAVYYCARGDYYGSGSFFDCWGQGTLVTVSS
VL: DIQMTQSPSSLSASVGDRVTITCRASQGISSWLAWYQQKPEKAPKSLIYAASSLQSGVPSRFSGSGSGTDFTLTISSLQPEDFATYYCQQYNSYPPTFGQGTKLEIKR
notes: positive control, from CN1829740B; also called pamrevlumab; FG-3019
B2: Hu147-22wk (antibody, human IgG1, kappa, V domains shown)
VH: EVQLVESGGGLVQPGGSLRLSCAASGFTFNTYAMNWVRQAPGKGLEWVARIRTKSNNYATYYADSVKDRFTISRDDSKNSLYLQMNSLKTEDTAVYYCVETGFAYWDQGTLVTVSS
VL: EIVLTQSPATLSLSPGERATLSCSASSSVSYMHWFQQKPGQSPKLLIYSTSNLASGIPARFSGSGSGTDYTLTISSLEPEDFAVYYCQQRSSYPLTFGQGTKLEIKR
notes: humanized from mab147, Hu147-VH2/VL2; IgG1/kappa
B3: Hu147-24wk (antibody, human IgG1, kappa, V domains shown)
VH: B2 VH
VL: DIQMTQSPSSLSASVGDRVTITCSASSSVSYMHWFQQKPGKSPKLLIYSTSNLASGVPSRFSGSGSGTDYTLTISSLQPEDFATYYCQQRSSYPLTFGQGTKLEIKR
notes: humanized from mab147, Hu147-VH2/VL4; IgG1/kappa
B4: Hu147-12wk (antibody, human IgG1, kappa, V domains shown)
VH: B2 VH with N30S, A49G
VL: B2 VL
notes: humanized from mab147, Hu147-VH1/VL2; IgG1/kappa
B5: Hu147-31wk (antibody, human IgG1, kappa, V domains shown)
VH: B2 VH with T28S, K78E, N79S
VL: B2 VL with K44R
notes: humanized from mab147, Hu147-VH3/VL1; IgG1/kappa
B6: Hu147-33wk (antibody, human IgG1, kappa, V domains shown)
VH: B2 VH with T28S, K78E, N79S
VL: B2 VL with L46W, I57V
notes: humanized from mab147, Hu147-VH3/VL3; IgG1/kappa
B7: Hu147-23wk (antibody, human IgG1, kappa, V domains shown)
VH: B2 VH
VL: B2 VL with L46W, I57V
notes: humanized from mab147, Hu147-VH2/VL3; IgG1/kappa
B8: Hu147-32wk (antibody, human IgG1, kappa, V domains shown)
VH: B2 VH with T28S, K78E, N79S
VL: B2 VL
notes: humanized from mab147, Hu147-VH3/VL2; IgG1/kappa
B9: Hu147-21wk (antibody, human IgG1, kappa, V domains shown)
VH: B2 VH
VL: B2 VL with K44R
notes: humanized from mab147, Hu147-VH2/VL1; IgG1/kappa
B10: Hu147-13wk (antibody, human IgG1, kappa, V domains shown)
VH: B2 VH with N30S, A49G
VL: B2 VL with L46W, I57V
notes: humanized from mab147, Hu147-VH1/VL3; IgG1/kappa
B11: Hu147-11wk (antibody, human IgG1, kappa, V domains shown)
VH: B2 VH with N30S, A49G
VL: B2 VL with K44R
notes: humanized from mab147, Hu147-VH1/VL1
B12: Hu147-34wk (antibody, human IgG1, kappa, V domains shown)
VH: B2 VH with T28S, K78E, N79S
VL: B3 VL
notes: humanized from mab147, Hu147-VH3/VL4; IgG1/kappa
B13: Hu147-14wk (antibody, human IgG1, kappa, V domains shown)
VH: B2 VH with N30S, A49G
VL: B3 VL
notes: humanized from mab147, Hu147-VH1/VL4; IgG1/kappa
B14: Hu147-15wk (antibody, human IgG1, kappa, V domains shown)
VH: B2 VH with N30S, A49G
VL: B3 VL with M4L, L46W
notes: humanized from mab147, Hu147-VH1/VL5; IgG1/kappa
B15: Hu164-67wl (antibody, human IgG1, lambda)
heavy: not shown
light: ETVVTQEPSLTVSPGGTVTLTCRSSIGAVTTSNYANWVQQKPGQAFRGLIGGTSNRAPWTPARFSGSLLGGKAALTLSGVQPEDEAEYYCALWYSTHYVFGGGTKLTVLGQPKANPTVTLFPPSSEELQANKATLVCLISDFYPGAVTVAWKADGSPVKAGVETTKPSKQSNNKYAASSYLSLTPEQWKSHRSYSCQVTHEGSTVEKTVAPTEC
notes: humanized from mab164, Hu164-VH6/VL7; IgG1/lambda
B16: Hu164-67yl (antibody, human IgG1, lambda)
heavy: EVTLKESGPVLVKPTETLTLTCTVSGFSLSTFGVHWIRQPPGKGLEWLGVIWRRGGTDYNAAFMSRLTISKDTSKSQVVFTMTNMDPVDTATYYCARDGGFDYWGQGTTVTVSSASTKGPSVFPLAPSSKSTSGGTAALGCLVKDYFPEPVTVSWNSGALTSGVHTFPAVLQSSGLYSLSSVVTVPSSSLGTQTYICNVNHKPSNTKVDKKVEPKSCDKTHTCPPCPAPELLGGPSVFLFPPKPKDTLYITREPEVTCVVVDVSHEDPEVKFNWYVDGVEVHNAKTKPREEQYNSTYRVVSVLTVLHQDWLNGKEYKCKVSNKALPAPIEKTISKAKGQPREPQVYTLPPSRDELTKNQVSLTCLVKGFYPSDIAVEWESNGQPENNYKTTPPVLDSDGSFFLYSKLTVDKSRWQQGNVFSCSVMHEALHNHYTQKSLSLSPGK
light: B15 light
notes: humanized from mab164, Hu164-VH6/VL7

Target: T1, human CTGF (antigen of the Biacore …)
Experiment: SPR (Biacore T200), human CTGF on CM5 chip, antibody 150 ug/ml then 50 nM TGF-β1 as competitor
Description: The antigen human CTGF was firstly fixed onto a CM5 biosensor chip (Cat. #BR-1005-30, GE) by amino coupling at a level of 1500 RU. Then high-concentration CTGF antibody (150 μg/ml) was allowed to flow over the surface of the chip for 150 s, and 50 nM TGF-β1 protein was injected for 120 s. The reaction signals were detected in real time using a Biacore T200 instrument to obtain an association and dissociation curve. After dissociation was complete in each test cycle, the biosensor chip was washed thoroughly and regenerated with a regeneration buffer.
The data obtained from the experiment were statistically analyzed using GE Biacore T200 Evaluation version 3.0 software.
Blocking efficiency=[1−(sample response value/blank control response value)]×100%.

Row | Binder | Percent function blocking (%)
1 | B1 | 41.3
2 | B2 | 52.3
3 | B3 | 52.8
4 | B4 | 51.6
5 | B5 | 55
6 | B6 | 57.3
7 | B7 | 54.6
8 | B8 | 55.2
9 | B9 | 51.6
10 | B10 | 53.3
11 | B11 | 50.8
12 | B12 | 56.2
13 | B13 | 50.9
14 | B14 | 52.3
15 | B15 | 55.5
16 | B16 | 53.9
